± gives the uncertainty stated by the source.
Assay: self-splicing fitness, log relative to wild type (ln ratio); higher = more splicing; Tetrahymena group I intron in knt gene, E. coli kanamycin selection, DiMSum; sequences stand for … in CUCUCU…GGAGGGAAAAGUUAUCAGGCAUGCACCUGGUAGCUAGUCUUUAAACCAAUAGAUUGCAUCGGUUUAAAAGGCAAGACCGUCAAAUUGCGGGAAAGGGGUCAACAGCCGUUCAGUACCAAGUCUCAGGGGAAACUUUGAGAUGGCCUUGCAAAGGGUAUGGUAAUAAGCUGACGGACAUGGUCCUAACCACGCAGCCAAGUCCUAAGUCAACAGAUCUUCUGUUGAUAUGGAUGCAGUUCACAGACUAAAUGUCGGUCGGGGAAGAUGUAUUCUUCUCAUAAGAUAUAGUCGGACCUCUCCUUAAUGGGAGCUAGCGGAUGAAGUGAUGCAACACUGGAGCCGCUGGGAACUAAUUUGUAUGCGAAAGUAUAUUGAUUAGUUUUGGAGUACUCGUGGUCG
Outline: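 Pooled colonies went to amplicon sequencing on an Illumina HiSeq 2500 after six replicate transformations. The plates were LB agar with 100 μg/mL carbenicillin, 50 μM IPTG and 0.2% rhamnose, with or without 25 μg/mL kanamycin, incubated overnight at 37°C or 30°C. The E. coli BL21(DE3) library had all eight P1ex-region intron nucleotides randomised, the intron placed in the knt kanamycin-resistance gene on pET-22b(+). DiMSum fitness is the error-weighted combination of replicate fold changes, kanamycin against none, normalised to wild type.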

Row | Sequence | self-splicing fitness (ln) (30 °C) | self-splicing fitness (ln) (37 °C)
1 | CUUUAGCAAUAUUACGGACG | -0.38 ± 0.07 | -0.273 ± 0.11
2 | AGAAAGCAAUAUUACGGUAA | -2.66 ± 0.25 | -0.265 ± 0.14
3 | UGUAAGCAAUAUUACGUGUA | -1.52 ± 0.077 | -0.97 ± 0.093
4 | UUGGAGCAAUAUUACGGCAG | -1.6 ± 0.17 | -1.01 ± 0.22
5 | GCUCAGCAAUAUUACGGGGG | -3.18 ± 0.17 | -1.92 ± 0.16
6 | CCACAGCAAUAUUACGGUUU | -4.31 ± 0.19 | -2.8 ± 0.16
7 | CAAUAGCAAUAUUACGAGCG | -0.254 ± 0.077 | 0.281 ± 0.098
8 | UGCCAGCAAUAUUACGGGAU | -3.16 ± 0.13 | -2.44 ± 0.18
9 | AGUAAGCAAUAUUACGAUAA | -2.23 ± 0.32 | -1.4 ± 0.19
10 | GUACAGCAAUAUUACGUAAG | -1.08 ± 0.096 | -0.465 ± 0.11
11 | AAGGAGCAAUAUUACGACGA | -1.94 ± 0.15 | -0.382 ± 0.11
12 | UUAGAGCAAUAUUACGUUGC | -2.58 ± 0.22 | -1.25 ± 0.33
13 | GCUGAGCAAUAUUACGUUAC |  | -2.37 ± 0.32
14 | ACGCAGCAAUAUUACGAGUC | -4.93 ± 0.27 | -2.26 ± 0.18
15 | CCACAGCAAUAUUACGCCCG | -0.882 ± 0.078 | -0.0155 ± 0.09
16 | GUGCAGCAAUAUUACGUAGA | -2.02 ± 0.087 | -0.647 ± 0.11
17 | UCCCAGCAAUAUUACGACCG | -3.22 ± 0.3 | -3.01 ± 0.31
18 | GACGAGCAAUAUUACGUGGG | -4.32 ± 0.36 | -3.12 ± 0.2
19 | ACUGAGCAAUAUUACGGUUU | -3.46 ± 0.17 | -2.6 ± 0.11
20 | UAGGAGCAAUAUUACGUUUG | -3.19 ± 0.2 | -1.25 ± 0.22

Row | Sequence | self-splicing fitness (ln) (30 °C) | self-splicing fitness (ln) (37 °C)
21 | AAGCAGCAAUAUUACGGGCG | -0.645 ± 0.065 | -0.638 ± 0.099
22 | GCAAAGCAAUAUUACGAUAU | -1.41 ± 0.075 | 0.42 ± 0.082
23 | CCCGAGCAAUAUUACGCUUC | -3.7 ± 0.47 | -2.32 ± 0.29
24 | GAGCAGCAAUAUUACGUCGU | -1.35 ± 0.13 | -2.39 ± 0.2
25 | AGGGAGCAAUAUUACGUAAC | -2.23 ± 0.28 | -2.99 ± 0.29
26 | UUCAAGCAAUAUUACGUUUA | -1.49 ± 0.087 | -0.461 ± 0.082
27 | AACCAGCAAUAUUACGAAUG | -2.22 ± 0.089 | -1.89 ± 0.083
28 | GGUGAGCAAUAUUACGCGGA | -2.35 ± 0.19 | -1.57 ± 0.15
29 | CGCCAGCAAUAUUACGACAC | -2.92 ± 0.25 | -1.65 ± 0.26
30 | AUAGAGCAAUAUUACGAACA | -1.9 ± 0.16 | -1.09 ± 0.25
31 | GCUGAGCAAUAUUACGGGUA | -1.3 ± 0.091 | -1.15 ± 0.1
32 | ACACAGCAAUAUUACGACCU | -0.472 ± 0.069 | 0.384 ± 0.092
33 | UAACAGCAAUAUUACGUGCU | -3.33 ± 0.16 | -2.28 ± 0.16
34 | UAGUAGCAAUAUUACGGGAU | -3.3 ± 0.23 | -1.97 ± 0.18
35 | GACAAGCAAUAUUACGUGUC | -4.44 ± 0.28 | -3.22 ± 0.37
36 | AGGUAGCAAUAUUACGACAA | -0.614 ± 0.018 | -0.295 ± 0.035
37 | GUACAGCAAUAUUACGAUUA | -0.7 ± 0.095 | -0.556 ± 0.1
38 | AUUAAGCAAUAUUACGCUGA | -2.36 ± 0.41 | -0.862 ± 0.28
39 | CGUCAGCAAUAUUACGGAUA | -1.02 ± 0.079 | -0.231 ± 0.086
40 | UUGUAGCAAUAUUACGCGGG | -3 ± 0.25 | -2.32 ± 0.16

Row | Sequence | self-splicing fitness (ln) (30 °C) | self-splicing fitness (ln) (37 °C)
41 | CUGCAGCAAUAUUACGGGAA | -4.02 ± 0.29 | -2.53 ± 0.17
42 | CAAGAGCAAUAUUACGUCAC | -3.05 ± 0.21 | -2.75 ± 0.23
43 | CCCCAGCAAUAUUACGCGUA | -3.87 ± 0.25 | -2.46 ± 0.18
44 | GAAUAGCAAUAUUACGGCCA | -0.596 ± 0.1 | -0.0233 ± 0.13
45 | GACUAGCAAUAUUACGAGUC |  | -2.36 ± 0.39
46 | AUGUAGCAAUAUUACGUCGG | -3.01 ± 0.35 | -2.18 ± 0.28
47 | CAAUAGCAAUAUUACGCAAC | -3.75 ± 0.34 | -1.91 ± 0.39
48 | GACAAGCAAUAUUACGGGAU | -2.65 ± 0.14 | -0.632 ± 0.12
49 | GCUCAGCAAUAUUACGAAUC | -0.406 ± 0.081 | -0.385 ± 0.082
50 | CAUGAGCAAUAUUACGUGUA | -3.33 ± 0.21 | -2.1 ± 0.15
51 | AAGCAGCAAUAUUACGGCCG | -0.9 ± 0.11 | -0.057 ± 0.17
52 | UACCAGCAAUAUUACGCGGC | -3.78 ± 0.13 | -3.27 ± 0.18
53 | CCGGAGCAAUAUUACGUUGU | -2.59 ± 0.21 | -2.56 ± 0.26
54 | AUAGAGCAAUAUUACGCCAU | -2.25 ± 0.18 | -1.66 ± 0.27
55 | AUUGAGCAAUAUUACGCAAU | -3.28 ± 0.26 | -2.07 ± 0.21
56 | GCAGAGCAAUAUUACGCUCA | -1.66 ± 0.15 | -0.832 ± 0.15
57 | GCCCAGCAAUAUUACGUUCU | -1.95 ± 0.079 | -1.18 ± 0.091
58 | UUACAGCAAUAUUACGCAAU | -1.23 ± 0.15 | -2.23 ± 0.4
59 | CCCUAGCAAUAUUACGAUGC | -3.12 ± 0.2 | -2.22 ± 0.31
60 | AUAGAGCAAUAUUACGUGCG | -1.6 ± 0.11 | -0.384 ± 0.11
